In patent US20190336537A1, “GENERATING ATRIAL AND VENTRICULAR CARDIOMYOCYTE LINEAGES FROM HUMAN PLURIPOTENT STEM CELLS” (UNIVERSITY HEALTH NETWORK, priority 2016, published 2019):

Legend:
[1] = system: HES3 NKX2-5:GFP hESC-derived day 20 EB populations; assay: Flow cytometric and immunostaining analyses of day 20 EB populations (CTNT, MLC2V, NKX2-5, COUPTFII); format: cell-based, human
Procedure: For cardiac differentiation, we used a modified version of our embryoid body (EB)-based protocol (Kattman et al., 2011). hPSC populations at 80%-90% confluence were dissociated into single cells (TrypLE, ThermoFisher) and re-aggregated to form EBs in StemPro-34 media (ThermoFisher) containing penicillin/streptomycin (1%, ThermoFisher), L-glutamine (2 mM, ThermoFisher), trans-ferrin (150 μg/ml, ROCHE), ascorbic acid (50 μg/ml, Sigma), and monothioglycerol (50 μg/ml, Sigma), ROCK inhibitor Y-27632 (10 μM, TOCRIS) and rhBMP4 (1 ng/ml, R&D) for 18 h on an orbital shaker. At day 1, the EBs were transferred to mesoderm induction media consisting of StemPro-34 with above supplements (-ROCK inhibitor Y-27632) and rhBMP4, rhActivinA (R&D) and rhbFGF (5 ng/ml, R&D) at the indicated concentrations. At day 3, the EBs were harvested, washed with IMDM and transferred to cardiac mesoderm specification media consisting of StemPro-34, the Wnt inhibitor IWP2 (1 μM, TOCRIS) and rhVEGF (10 ng/mL, R&D). At day 5, the EBs were transferred to Stem Pro-34 with rhVEGF (5 ng/ml) for another 7 days and then to Stem Pro-34 media without additional cytokines for further 8 days. At day 20, HES3-NKX2-5gfp/w-derived cardiomyocytes were analyzed and isolated based on the expression of NKX2-5:GFP and SIRPa and a lack of CD90. Cardiomyocytes generated from non-transgenic hPSC lines were analyzed and isolated as SIRPa+CD90− populations. Media was changed every 3 days. Cultures were incubated in a low oxygen environment (5% CO2, 5% O2, 90% N2) for first 12 days and a normoxic environment (5% CO2) for the following 8 days in total of 20 days. The EBs were cultured in ultra-low attachment 6-well dishes (Corning) throughout the differentiation for maintaining suspension cultures.
(§1) Day 2-6 EBs were dissociated with TrypLE for 2-4 min at room temperature (RT). Day 20 EBs were dissociated by incubation in Collagenase type 2 (0.5 mg/ml, Worthington) in HANKs buffer overnight at RT followed by TrypLE treatment as described above. The following antibodies were used for staining: anti-PDGFRa-PE (R&D Systems, 3:50), anti-CD235a-APC (BD PharMingen, 1:100), antiSIRPa-PeCy7 (Biolegend, 1:1000), anti-CD90-APC (BD PharMingen, 1:1000), anticardiac isoform of CTNT (ThermoFisher Scientific, 1:2000), or anti-myosin light chain 2 (Abcam, 1:1000). For unconjugated primary antibodies, the following secondary antibodies were used for detection: goat anti-mouse IgG-APC (BD Pharmigen, 1:250), or donkey anti-rabbit IgG-PE (Jackson ImmunoResearch, 1:250). Detailed antibody information is described in Table 2.
For cell-surface marker analyses, cells were stained for 30 min at 4 degrees C. in FACS buffer consisting of PBS with 5% fetal calf serum (FCS) (Wisent) and 0.02% sodium azide. For intracellular staining, cells were fixed for 15 min at 4 degrees C. with 4% PFA in PBS followed by permeabilization using 90% methanol for 20 min at 4 degrees C. Cells were washed with PBS containing 0.5% BSA (Sigma) and stained with unconjugated primary antibodies in FACS buffer overnight at 4 degrees C. Stained cells were washed with PBS with 0.5% BSA and stained with secondary antibodies in FACS buffer for 1 h at 4 degrees C.
Stained cells were analyzed using the LSR II Flow cytometer (BD). For cell sorting, stained cells were kept in IMDM with 0.5% FCS and sorted using Influx (BD), FACSAriall (BD), MoFlo-XDP (BD) and FACSAria Fusion (BD) at the Sickids/UHN flow cytometry facility. Data were analyzed using FlowJo software (Tree Star).
Day 20 EBs were dissociated as described above and the cells plated onto 12 mm cover glasses (VWR) pre-coated with matrigel (25% v/v, BD). Cells were cultured for 3-5 days to enable the formation of adherent cell monolayers. Cells were fixed with
4% PFA in PBS for 10 min at room temperature and permeabilized with PBS containing 0.3% TritonX, 200 mM Glycine (Sigma) for 20 min at RT. Cells were blocked with PBS containing 10% FCS, 0.1% TritonX, and 2% BSA. […]

[2] = system: hPSC-derived day 2-6 EB mesoderm; assay: Aldefluor assay and flow cytometry of mesoderm (ALDH activity, PDGFRalpha, CD235a); format: cell-based, human
Procedure: as §1
The Aldefluor™ assay (STEMCELL Technologies) was performed according to the instruction provided by the manufacturer. Briefly, day 2-6 EBs were dissociated as described above. Cells were stained at a concentration of 2×10^6 cells/ml in the aldefluor assay buffer containing 0.1% BSA and BAAA substrate (0.12 mg/ml) for 60 min at 37 degrees C. The aldehyde dehydrogenase inhibitor DEAB ([…]) was added to the negative control sample. Cells were washed with cold media consisting of IMDM with 5% FCS and 10% aldefluor assay buffer. Cells were then stained with antibodies to cell surface markers at the concentrations indicated above in cold wash media for additional 20 min at 4 degrees C. Stained cells were analyzed as described above. During analyses, the cells were kept in cold wash media. For cell sorting, FCS was replaced with KnockOut™ serum replacement (ThermoFisher) to avoid any impact of serum-contained cy-tokines on the cell differentiations. Cells were maintained in StemPro-34 containing 10% aldefluor assay buffer throughout the sorting procedure. The sorted cells were collected and re-aggregated in StemPro-34 containing ROCK inhibitor (10 μM), IWP2 (0.5 μM) and rhVEGF (5 ng/ml).

[3] = reducing BMP4 from 10 to 3 ng/mL, Activin A 2 ng/mL
[4] = increasing Activin A from 2 to 12 ng/ml, BMP4 10 ng/mL
[5] = reducing Activin A, constant BMP4 (10 ng/mL)

| Molecule | frequency of MLC2V+CTNT+ cells at day 20 ([1]; BMP4 20 ng/mL, Activin A 12 ng/mL) | frequency of CTNT+ cells at day 20 [1, 3] | size of the CD235a+ population ([2]; BMP4 3-20 ng/mL, Activin A 12 ng/mL) | size of the ALDH+PDGFRalpha+ population [2, 3] | proportion of MLC2V+CTNT+ cells [1, 4] | proportion of CTNT+ cardiomyocytes generated [1, 5] | ALDH+ population [2, 4] | size of the day 4 CD235a+ population [2, 4] | size of the ALDH+PDGFRalpha+ population at day 4 [2, 5] |
| --- | --- | --- | --- | --- | --- | --- | --- | --- | --- |
| BMP4: Bone Morphogenetic Protein 4, recombinant human (R&D) (protein, UniProt P12644 293-408, looked up) Bone morphogenetic protein 4: SPKHHSQRARKKNKNCRRHSLYVDFSDVGWNDWIVAPPGYQAFYCHGDCPFPLADHLNSTNHAIVQTLVNSVNSSIPKACCVPTELSAISMLYLDEYDKVVLKNYQEMVVEGCGCR | lowest frequency | increase the frequency | little impact | did not influence | – | – | – | – | – |
| Activin A: Recombinant human ActivinA (R&D), activates nodal signal transduction (protein, UniProt P08476 311-426, looked up, Inhibin beta A chain) Inhibin beta A chain: GLECDGKVNICCKKQFFVSFKDIGWNDWIIAPSGYHANYCEGECPSHIAGTSGSSLSFHSTVINHYRMRGHSPFANLKSCCVPTKLRPMSMLYYDDGQNIIKKDIQNMIVEECGCS | – | – | – | – | increase in the proportion | decrease | elimination | increase in the size | substantial increase |
